From patent publication US20170210813A1 (Regeneron, published 2017)

T1: Macaca fascicularis PDGFRb.mmh (Macaca fascicularis)
T1 construct: Soluble monomeric construct; also called mfPDGFRb.mmh
T1 chain: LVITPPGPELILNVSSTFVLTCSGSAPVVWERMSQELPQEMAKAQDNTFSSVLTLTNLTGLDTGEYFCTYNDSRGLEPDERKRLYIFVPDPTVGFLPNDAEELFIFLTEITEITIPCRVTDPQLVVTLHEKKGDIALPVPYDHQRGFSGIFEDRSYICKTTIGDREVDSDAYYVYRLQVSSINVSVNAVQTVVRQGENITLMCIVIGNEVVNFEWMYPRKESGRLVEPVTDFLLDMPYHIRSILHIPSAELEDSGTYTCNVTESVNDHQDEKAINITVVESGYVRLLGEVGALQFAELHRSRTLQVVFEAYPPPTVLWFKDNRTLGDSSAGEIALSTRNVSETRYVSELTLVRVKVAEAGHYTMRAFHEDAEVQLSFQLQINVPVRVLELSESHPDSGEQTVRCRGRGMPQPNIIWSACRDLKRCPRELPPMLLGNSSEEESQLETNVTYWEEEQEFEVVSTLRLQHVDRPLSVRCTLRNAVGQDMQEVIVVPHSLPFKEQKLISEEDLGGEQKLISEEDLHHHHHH


How the values were obtained:
[1] = biological target: full length human PDGFR-beta on HEK293 cells (human, UniProt P09619 33-1106); assay: cell-based or functional assay
Sequence of full length human PDGFR-beta on HEK293 cells (P09619 33-1106 limits assumed): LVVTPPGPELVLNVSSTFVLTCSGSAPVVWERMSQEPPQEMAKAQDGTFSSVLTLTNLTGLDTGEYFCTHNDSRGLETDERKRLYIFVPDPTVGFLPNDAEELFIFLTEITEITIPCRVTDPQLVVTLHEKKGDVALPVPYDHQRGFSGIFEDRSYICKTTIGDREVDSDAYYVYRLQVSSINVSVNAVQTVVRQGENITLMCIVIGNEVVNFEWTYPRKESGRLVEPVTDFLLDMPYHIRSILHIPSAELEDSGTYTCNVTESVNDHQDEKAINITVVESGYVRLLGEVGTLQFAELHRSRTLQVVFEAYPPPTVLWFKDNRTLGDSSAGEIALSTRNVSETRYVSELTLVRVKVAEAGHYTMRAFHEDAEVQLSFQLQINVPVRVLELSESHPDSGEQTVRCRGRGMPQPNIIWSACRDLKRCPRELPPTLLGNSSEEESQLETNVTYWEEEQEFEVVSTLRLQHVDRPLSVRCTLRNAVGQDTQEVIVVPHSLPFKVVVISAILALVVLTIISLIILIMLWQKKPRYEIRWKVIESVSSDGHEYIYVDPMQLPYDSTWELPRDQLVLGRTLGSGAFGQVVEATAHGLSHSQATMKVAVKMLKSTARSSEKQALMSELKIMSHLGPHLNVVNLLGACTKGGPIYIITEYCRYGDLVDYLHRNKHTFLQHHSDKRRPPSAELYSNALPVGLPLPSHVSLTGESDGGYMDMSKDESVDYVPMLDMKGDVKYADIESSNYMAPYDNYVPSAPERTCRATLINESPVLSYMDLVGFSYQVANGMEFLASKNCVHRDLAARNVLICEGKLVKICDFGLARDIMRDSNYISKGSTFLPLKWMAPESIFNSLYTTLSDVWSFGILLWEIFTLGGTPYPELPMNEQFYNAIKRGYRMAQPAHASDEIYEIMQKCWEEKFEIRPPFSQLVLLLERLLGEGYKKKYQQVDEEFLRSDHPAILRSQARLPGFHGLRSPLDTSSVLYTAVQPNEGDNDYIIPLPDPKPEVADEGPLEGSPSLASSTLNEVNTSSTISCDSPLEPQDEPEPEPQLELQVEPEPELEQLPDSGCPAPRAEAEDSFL

human PDGFRb.hFc [2] = biological target: T2, human PDGFRb.hFc (human); assay: SPR, mAb captured, 37 C
T2 construct: Soluble dimeric construct with human Fc; also called hPDGFRb.hFc
Method: (§1) Antibodies, expressed as either mouse Fc (prefix H1M; H2M) or human Fc (prefix H4H), were captured on their respective anti-Fc sensor surfaces (Mab capture format). […] Kinetic association (kₐ) and dissociation (kd) rate constants were determined by processing and fitting the data to a 1:1 binding model using Scrubber 2.0 curve fitting software.

hPDGFRb.mmh [3] = biological target: T3, hPDGFRb.mmh (human, UniProt P09619 33-531); assay: SPR, mAb captured, 37 C
T3 construct: Soluble monomeric construct; also called soluble human PDGFR-beta.mmh
Method: as §1
Target sequence in this assay (P09619 other isoform, or with tags, fused parts or gaps): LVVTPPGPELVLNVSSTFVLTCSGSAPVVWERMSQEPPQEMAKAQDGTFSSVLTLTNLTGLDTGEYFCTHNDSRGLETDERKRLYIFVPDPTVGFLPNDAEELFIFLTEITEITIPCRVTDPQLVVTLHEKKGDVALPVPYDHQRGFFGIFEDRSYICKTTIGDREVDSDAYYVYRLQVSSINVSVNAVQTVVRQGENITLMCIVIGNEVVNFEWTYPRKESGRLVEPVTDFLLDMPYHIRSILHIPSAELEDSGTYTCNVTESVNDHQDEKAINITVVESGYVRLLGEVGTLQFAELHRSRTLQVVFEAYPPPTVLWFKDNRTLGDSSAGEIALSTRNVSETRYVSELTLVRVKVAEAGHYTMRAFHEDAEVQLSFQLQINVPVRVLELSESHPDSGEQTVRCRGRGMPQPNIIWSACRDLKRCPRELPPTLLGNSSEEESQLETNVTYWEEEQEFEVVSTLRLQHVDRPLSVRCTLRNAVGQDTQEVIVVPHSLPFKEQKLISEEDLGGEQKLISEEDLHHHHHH

[4] = biological target: T1, Macaca fascicularis PDGFRb.mmh; assay: SPR, mAb captured, 37 C
Method: as §1

human PDGFRb.hFc [5] = biological target: T2, human PDGFRb.hFc; assay: SPR, mAb captured, 25 C
Method: as §1

hPDGFRb.mmh [6] = biological target: T3, hPDGFRb.mmh; assay: SPR, mAb captured, 25 C
Method: as §1

[7] = biological target: T1, Macaca fascicularis PDGFRb.mmh; assay: SPR, mAb captured, 25 C
Method: as §1

hPDGFRb.mmh [8] = biological target: T3, hPDGFRb.mmh; assay: blocking ELISA, biot-hPDGFRb.mmh to coated PDGF-BB
Method: The equilibrated PDGFR-beta/antibody solutions were added to ligand-coated plates, allowed to incubate for 1 hr, and washed. Levels of bound biot-hPDGFR-beta.mmh were detected using HRP conjugated streptavidin. Data were analyzed using Prism software and IC₅₀ values were calculated as the amount of antibody required to achieve 50% reduction of hPDGFR-beta-mmh bound to ligand. Maximum blocking values were also calculated and reflect the ability of the antibody to block relative to baseline. The absorbance measured at the constant amount of 250 pM biot-hPDGFR-beta-mmh on the dose curve is defined as 0% blocking and the absorbance with no added PDGFR-beta is defined as 100%. The absorbance of the wells containing the highest antibody concentration determined the maximum blocking percent.
Target sequence in this assay (P09619 other isoform, or with tags, fused parts or gaps): as above

Binder | IC50, blocking PDGF-BB (250 pM) activation, SRE-luciferase [1] [M] | IC50, blocking PDGF-DD (400 pM) activation, SRE-luciferase [1] [M] | Kd (human PDGFRb.hFc [2]) [nM] | koff (human PDGFRb.hFc [2]) [s⁻¹] | kon (human PDGFRb.hFc [2]) [M⁻¹ s⁻¹] | t1/2 (human PDGFRb.hFc [2]) [min] | Kd (hPDGFRb.mmh [3]) [nM] | koff (hPDGFRb.mmh [3]) [s⁻¹] | kon (hPDGFRb.mmh [3]) [M⁻¹ s⁻¹] | t1/2 (hPDGFRb.mmh [3]) [min] | Kd [4] [nM] | koff [4] [s⁻¹] | kon [4] [M⁻¹ s⁻¹] | t1/2 [4] [min] | Kd (human PDGFRb.hFc [5]) [nM] | koff (human PDGFRb.hFc [5]) [s⁻¹] | kon (human PDGFRb.hFc [5]) [M⁻¹ s⁻¹] | t1/2 (human PDGFRb.hFc [5]) [min] | Kd (hPDGFRb.mmh [6]) [nM] | % Maximum Blocking (hPDGFRb.mmh [8]) [%] | other results
H4H3105S (antibody, human IgG4, V domains shown, human IgG4 Fc (H4H prefix)) VH: QVQLVESGGSLVQPGGSLRLACTASGFTFSSYWMSWVRQAPGKGLEWVANIQQDENEKYYVDSVKGRFSISRDNAKKSLYLQMNSLRVEDTAVYFCARDLVPPRQGDYYHYFGMDVWGQGTTVTVSS VL: DIQLTQSPSTLSASVGDRVTITCRASQSISDWLAWYQQKPGKAPNLLIYKASTLESGVPSRFSGSGSGTEFTLTISSLQPDDFATYYCQQYNSYSRTFGQGTKVEIK | 5.8e-10 | 5.1e-10 | 3 | 0.000824 | 280000 | 14 | 11.3 | 0.00354 | 314000 | 3 | 14.4 | 0.00416 | 289000 | 3 | 0.91 | 0.000225 | 247000 | 51 | 3.19 | 86 | koff (hPDGFRb.mmh [6]): 0.000784 s⁻¹; kon (hPDGFRb.mmh [6]): 246000 M⁻¹ s⁻¹; t1/2 (hPDGFRb.mmh [6]): 15 min; Kd [7]: 5.2 nM; koff [7]: 0.000932 s⁻¹; kon [7]: 180000 M⁻¹ s⁻¹; t1/2 [7]: 12 min; IC50 (hPDGFRb.mmh [8]): 0.16 nM
H4H3098S (antibody, human IgG4, V domains shown, human IgG4 Fc (H4H prefix)) VH: EVQLVESGGGVVQPGRSLRLSCAASGFTFSNYGMHWVRQAPGKGLEWVTVIWYDGSYKYYADSVKGRFTISRDNSKNRLYLQMNSLRAEDTAVYYCARGELGDAFDIWGQGTMVTVSS VL: DIQMTQSPSTLSASVGDRLTITCRASQSISTWLAWYQQKPGKAPTLLIYKASSLESGVPSRFSGSGSGTDFTLTISSLQPDDFATYYCQQYKTSWTFGQGTKLEIKR | 1.2e-09 | 1.1e-09 | 0.206 | 7.66e-05 | 374000 | 151 | 2.34 | 0.00171 | 733000 | 7 | 95.6 | 0.0267 | 280000 | 0.4 | 0.219 | 6.22e-05 | 280000 | 186 | 1.54 | -13 | koff (hPDGFRb.mmh [6]): 0.000596 s⁻¹; kon (hPDGFRb.mmh [6]): 386000 M⁻¹ s⁻¹; t1/2 (hPDGFRb.mmh [6]): 19 min; Kd [7]: 68.9 nM; koff [7]: 0.0094 s⁻¹; kon [7]: 136000 M⁻¹ s⁻¹; t1/2 [7]: 1.2 min
H4H3097S (antibody, human IgG4, V domains shown, human IgG4 Fc (H4H prefix)) VH: QVQLVESGAEMKKPGASVKVSCKASGYTFTDYGINWVRQAPGQGLEWMGWVSGYNGNTVFAQKIQGRVTMTTDTSTSTAYMELRSLRSDDTAVYFCARISVRGHSYYHGMGVWGQGTTVTVSS VL: AIRMTQSPSSLSASVGDRVTITCRASQDINSYLAWFQQKPGKAPKSLIYTASSLQSGVPSKFSGSGSGTDFTLTISSLQPEDFATYYCQQYNTYPYTFGQGTKVESK |  |  |  |  |  |  |  |  |  |  |  |  |  |  |  |  |  |  |  | 5 | binding result (human PDGFRb.hFc [5]): no binding; binding result (hPDGFRb.mmh [6]): no binding; binding result [7]: no binding
H4H3106S (antibody, human IgG4, V domains shown, human IgG4 Fc (H4H prefix)) VH: QVQLVESGGGLVQPGGSLRLSCAASGFTFSSYWMSWVRQVPGKGLEWVANMNQDGTEKYYVDSVKGRLTISRENVKNSLYLQMNGLRAEDTAVYYCARDLVPPRQGDYYYYFGMDVWGHGTMVTVSS VL: AIQMTQSPSTLSASVGDIVTITCRASQSISDWLAWYQQKPGKAPKLLIFKASSLESGVPSRFSGSGSGTDFTLTISSLQPDDFATYYCQQYNSYSRTFGQGTKVDIK | 7.4e-10 | 5.2e-10 | 2.08 | 0.000741 | 356000 | 16 | 8.49 | 0.00335 | 394000 | 3 | 9.26 | 0.00345 | 372000 | 3 | 0.686 | 0.000215 | 314000 | 54 | 2.49 | 86 | koff (hPDGFRb.mmh [6]): 0.000744 s⁻¹; kon (hPDGFRb.mmh [6]): 299000 M⁻¹ s⁻¹; t1/2 (hPDGFRb.mmh [6]): 16 min; Kd [7]: 4.65 nM; koff [7]: 0.000882 s⁻¹; kon [7]: 190000 M⁻¹ s⁻¹; t1/2 [7]: 13 min; IC50 (hPDGFRb.mmh [8]): 0.17 nM
H4H3104S (antibody, human IgG4, V domains shown, human IgG4 Fc (H4H prefix)) VH: QVQLVESGGGLVQPGGSLRLSCAAAGFTFSHYWMSWVRQAPGKGLEWVATIKKDGSERYYVDSVKGRFTISRDNARNSMYLEMNSLRTEDTAIYYCARDIVTPNTDYYFGMDVWGQGTTVTVSS VL: DIQLTQSPSTLSASVGDRVTITCRASQSFNNWLSWYQQKPGKAPKLLIYMASTLESGVPSRFSGSGSGTDFTLTINSLQPDDFATYYCQQSNSYSRTFGHGTKVEIK | 5e-10 | 3.3e-10 | 0.606 | 0.000567 | 936000 | 20 | 3.37 | 0.0028 | 833000 | 4 | 4.05 | 0.00299 | 740000 | 4 | 0.304 | 0.000146 | 480000 | 79 | 1.61 | 89 | koff (hPDGFRb.mmh [6]): 0.000688 s⁻¹; kon (hPDGFRb.mmh [6]): 428000 M⁻¹ s⁻¹; t1/2 (hPDGFRb.mmh [6]): 17 min; Kd [7]: 0.909 nM; koff [7]: 0.000714 s⁻¹; kon [7]: 786000 M⁻¹ s⁻¹; t1/2 [7]: 16 min; IC50 (hPDGFRb.mmh [8]): 0.38 nM

Continued by falling Kd (human PDGFRb.hFc [2]), values first:

IC50, blocking PDGF-BB (250 pM) activation, SRE-luciferase [1] [M] | IC50, blocking PDGF-DD (400 pM) activation, SRE-luciferase [1] [M] | Kd (human PDGFRb.hFc [2]) [nM] | koff (human PDGFRb.hFc [2]) [s⁻¹] | kon (human PDGFRb.hFc [2]) [M⁻¹ s⁻¹] | t1/2 (human PDGFRb.hFc [2]) [min] | Kd (hPDGFRb.mmh [3]) [nM] | koff (hPDGFRb.mmh [3]) [s⁻¹] | kon (hPDGFRb.mmh [3]) [M⁻¹ s⁻¹] | t1/2 (hPDGFRb.mmh [3]) [min] | Kd [4] [nM] | koff [4] [s⁻¹] | kon [4] [M⁻¹ s⁻¹] | t1/2 [4] [min] | Kd (human PDGFRb.hFc [5]) [nM] | koff (human PDGFRb.hFc [5]) [s⁻¹] | kon (human PDGFRb.hFc [5]) [M⁻¹ s⁻¹] | t1/2 (human PDGFRb.hFc [5]) [min] | Kd (hPDGFRb.mmh [6]) [nM] | % Maximum Blocking (hPDGFRb.mmh [8]) [%] | Binder | other results
4.5e-10 | 5.8e-10 | 3.1 | 0.000793 | 250000 | 15 | 13.8 | 0.00624 | 452000 | 2 | 31.6 | 0.00512 | 162000 | 2 | 1.17 | 0.00026 | 222000 | 44 | 3.68 | 84 | H4H3096S (antibody, human IgG4, V domains shown, human IgG4 Fc (H4H prefix)) VH: EVQLVQSGGSLVQPGGSLRLSCTASGFTFSSYWMSWVRQAPGKGLEWVANIQQDESEKYYVDSVKGRFSISRDNAKKSLYLQMNSLRAEDTAVYFCARDLVPPRQGDYYHYFGMDVWGQGTLVTVSS VL: AIRMTQSPSTLSASVGDRVTITCRASQSISDWLAWYQQKPGKAPNLLIYKASSLESGVPSRFSGSGSGTEFTLTISGLQPDDFATYYCQQYNSYSRTFGQGTKLEIKR | koff (hPDGFRb.mmh [6]): 0.00104 s⁻¹; kon (hPDGFRb.mmh [6]): 281000 M⁻¹ s⁻¹; t1/2 (hPDGFRb.mmh [6]): 11 min; Kd [7]: 6.39 nM; koff [7]: 0.00117 s⁻¹; kon [7]: 182000 M⁻¹ s⁻¹; t1/2 [7]: 10 min; IC50 (hPDGFRb.mmh [8]): 0.18 nM
4.1e-09 | 4.4e-09 | 0.76 | 0.000319 | 420000 | 36 | 1.42 | 0.00147 | 1.04e+06 | 8 | 2.86 | 0.00164 | 574000 | 7 | 0.39 | 0.000118 | 300000 | 98 | 0.89 | 30 | H4H3102S (antibody, human IgG4, V domains shown, human IgG4 Fc (H4H prefix)) VH: EVQLVESGGDLVHPGRSLRLSCVASGFTFDDYTMHWVRQAPGKGLEWVSAISWNGDNINYAGSVKGRFTISRDNAKNSLYLEMNSLRVEDTAFYYCAKGRGFSFGFNYLGQGTMVTVSS VL: AIRMTQSPSSLSASVGDRVTITCRASQDISNYLAWFQQQPGKAPKSLIYATSSLNSGVPSKFSGSGSGTDFTLTISSLQPEDFATYYCQQYKSYPLTFGGGTKVEIK | koff (hPDGFRb.mmh [6]): 0.000455 s⁻¹; kon (hPDGFRb.mmh [6]): 509000 M⁻¹ s⁻¹; t1/2 (hPDGFRb.mmh [6]): 25 min; Kd [7]: 1.73 nM; koff [7]: 0.000489 s⁻¹; kon [7]: 283000 M⁻¹ s⁻¹; t1/2 [7]: 24 min
